assay: soluble on expression in E. coli; label from the status in PepcDB or PDB records

Row | Sequence | soluble on expression in E. coli
1 | MLPLPWWMLGVGPEEEADESSDYDMVDGHSIEVQESVPTTPVSVFHTPSQSSIIDISDQLVDLPTFLKVAKRRSSTVLETATPAKTPKIQLSERRRKFQRNDTEVMIKTGEPVVDCDETLGLNWLFDTDYPRDAGSGDLLNSTFRIDHRNHGEGTSQITESPKNRDFPLFFSSFDDTTVLFNTTIAGDIDVNERNQASGDWIFRKDKSPTNDPIENDQETDEKTKSELGDGGEIVFKEPVQSTKKTRGRKRGTSVRIEKLSTSRRTSAKKKEEKQKETETFDADKNENPSTPTAPPTMTRRHTPSRKAKTNRTFRL | not soluble
2 | MSKTHPPELKKYMDKEMDLKLNGNRRVSGILRGFDPFMNMVIDEAVEYQKDGGSVNLGMTVIRGNSVVIMEPKERIS | not soluble
3 | MTDTQYIGRFAPSPSGELHFGSLIAALGSYLQARARQGRWLVRIEDIDPPREVPGAAETILRQLEHYGLHWDGDVLWQSQRHDAYREALAWLHEQGLSYYCTCTRARIQSIGGIYDGHCRVLHHGPDNAAVRIRQQHPVTQFTDQLRGIIHADEKLAREDFIIHRRDGLFAYNLAVVVDDHFQGVTEIVRGADLIEPTVRQISLYQLFGWKVPDYIHLPLALNPQGAKLSKQNHAPALPKGDPRPVLIAALQFLGQQAEAHWQDFSVEQILQSAVKNWRLTAVPESAIVNSTFSNASC | soluble
4 | MGSDKIHHHHHHMRIFFLDQSGKPGGAELCLIDIAKPYSHSALVGLFADGPFKDLLEQNHIPVEILATQTIQVSKESSLAQGLKSLGQLAPLITKVIKKAREYDLIYANTQKALVVGALASFFSRRPLVYHLHDILSTEHFSQTNLRIAINLANRCASLVIANSQASKTAFIQAGGRSDIVEVVYNGFDLKIYQTDEPGINQLQQKLGLQGKFVVGHFSRLAPWKGQHILIDALAKCPPEVTVILVGDALFGEQDYAQKLHKQVTDLGLENRVKFLGFRSDIPQLMAACDLVAHTSTSPEPFGRVIVEAMLCGKPVVAAKAGGVMELVEHGLNGFLVTPGEPQELAQVIITCLQETEITATIANNARTTASRRFDVATINQQIAQLLSHRF | not soluble
5 | MGSDKIHHHHHHMLVAERQQKIVEIVNMRSSIRVSELSDIFSVTEETIRRDLEKLEKEHKLSRSHGGAVSIQQKESEIHFSEREITNVIEKKAIAHEAAKYVKSGDRIILDASTTAWYMAKILPDIELTVITNSMKAAIELSNKENISVISTGGILLEKSLSFAGPLAERSLETYHVNKTFLSCKGFDVHNGMSDSNEWQALLKKRMIERSDQTILMADSSKWGNREFSHIASLQDVSRLITDSGLDPASVKALEDKKVKVTAVPLSKRG | not soluble
6 | MGSDKIHHHHHHMTTDYRLTSDADREAFYQLYQYAFNNHDTPARRRFFMDRYQHGWIYGRHDHGQLVSGLYSLPLAVNFHGVTYRMNGIGDVMSAPEYAGQGGAGQLLTTALTEMAANHVTLSYLAPFAYGYYRRFGYEHVFNHAHQVMAAPDLPRVKPTDWSGTITRYGNDGLAQINDFYARQPQNQCGGLIRPAWWQHYLTLKHHWSVAIYRNAAANIEGYLIYERQATNFAIQEWVTSTPTAFERLANFITKHGTTFETFSYDSPSATNGLDLLADPYRLKVTVQPYMMARIVDLYDFIKRYPFLTDIQPIRLAVSDATLPANQGIWSLTRHNGQVTLNRVSDQLTGPADIQLTIQQLTTACFGTQSLARAYQHGLITGDVNAINRLDTSLVKERPALIDYF | not soluble
7 | MSLKRVLAAEYVRMSTEHQKYSLDNQSEYIREYSLRNNITIIHTYNDAGKSGLNISGRPGLKALLDDVINKKITISAILVYDVSRFGRFQDADEAGHYSHLLRKNGVKIIYCAEPFSEEHPEMFMLGLSFSRHGAASYSRNLSEKVFLGQVNLIKRGYHQGGVAGYGLRRLLIDEHEGHHHHHH | not soluble
8 | MGSDKIHHHHHHMQWLTFQWLEFIREYREKAKHNLSNSGMPEPDLKSLGIDTSYEHYLDAAGEVEYRFTEALSRRLRVDQDLIIPTVGGTEAIFIALSHLSSVSKRIHVPLPEYEPMFLVPESLGIETSKIESKVMPGRISKNESIAMTLPNNPTAQYSDRISLLDNVIHSEGLIYIDETFRDFLPSGTRPTLFDGSETMVVSGTMTKFYGLSNLRTGWIISSEHNVAGMRRIKDLTSINNASFSLYIAAQAIQKWNYFKEAEDNLINKNLRVAREYLEGLPGISYKEPEGAPFIFLSYSKNIESVKLAKLAVERYGILFAPGSFFGEEHHIRVCLTSNKPEEDFNVLKEFLKKEAV | not soluble
9 | MVNLTRIYTRTGDKGTTALGDMSRVPKTDLRISAYADANEANAVIGTAIALGGLPEEVVKVLVRVQNDLFDVGADLSTPVVENPEYPPLRVEQFYVDKLEADCDRYLAEVEKLRSFILPGGTAGAALLHQACTVVRRAERSTWAALEAHGETMNPLTATYLNRLSDLLFILARVANKEVGDVLWVPGGERLEHHHHHH | soluble
10 | LEANEGSKTLQRNRKMAMGRKKFNMDPKKGIQFLVENELLQNTPEEIARFLYKGEGLNKTAIGDYLGEREELNLAVLHAFVDLHEFTDLNLVQALRQFLWSFRLPGEAQKIDRMMEAFAQRYCLCNPGVFQSTDTCYVLSYSVIMLNTDLHNPNVRDKMGLERFVAMNRGINEGGDLPEELLRNLYDSIRNEPFKIPEDDGND | soluble
11 | MSLKYAVLGATGLLGHHAARAIRAAGHDLVLVHRPSSQIQRLAYLEPECRVAEMLDHAGLERALRGLDGVIFSAGYYPSRPRRWQEEVASALGQTNPFYAACLQARVPRILYVGSAYAMPRHPQGLPGHEGLFYDSLPSGKSSYVLCKWALDEQAREQARNGLPVVIGIPGMVLGELDIGPTTGRVITAIGNGEMTHYVAGQRNVIDAAEAGRGLLMALERGRIGERYLLTGHNLEMADLTRRIAELLGQPAPQPMSMAMARALATLGRLRYRVSGQLPLLDETAIEVMAGGQFLDGRKAREELGFFSTTALDDTLLRAIDWFRDNGYFNTEGHHHHHH | soluble
12 | MSLGVTVSKNEAQRLENLTRDALLSTRRLSLIVDLDQTIIHTTVDPTVAEWMDEIHREEMKDAQEKANVPTEEVKGKGEETTTPPGSPGPGALGITVESPKEKNPNAEALRDVAKFQIADDLPPGYVKLKTKTTKGQNPPESEGRWYFTKPRPGLQRFLDEMCQLYEMHVYTMGTRTYADAIVKVIDPDGKIFGGRILSRDESGSFSSKNLKRLFPTDTSMVVVIDDRSDVWGDCPNLVKVVPYDFFLGIGDINSSFLPTNKSTEGHHHHHH | soluble
13 | MNYQVLLYYKYTTIDDPEQFAQDHLAFCKAHHLKGRILVSTEGINGTLSGTKEETEQYMAHMHADERFKDMVFKIDEAEGHAFKKMHVRPRKEIVALDLEDDVDPRHTTGQYLSPVEFRKALEDDDTVIIDARNDYEFDLGHFRGAIRPDITRFRDLPDWIKENKALFTDKKVVTYCTGGIRCEKFSGWLLKEGFEDVAQLHGGIATYGKDPETKGQYWDGKMYVFDDRISVDINQVEKTIIGKDWFDGKPCERYINCANPECNKQILVSEENETKYLGACSYECAKHERNRYVQANNISDNEWQQRLTNFDDLHQHALEHHHHHH | soluble
14 | MPILEKAPQKMPVKASSWEELDLPKLPVPPLQQTLATYLQCMQHLVPEEQFRKSQAIVKRFGAPGGLGETLQEKLLERQEKTANWVSEYWLNDMYLNNRLALPVNSSPAVIFARQHFQDTNDQLRFAACLISGVLSYKTLLDSHSLPTDWAKGQLSGQPLCMKQYYRLFSSYRLPGHTQDTLVAQKSSIMPEPEHVIVACCNQFFVLDVVINFRRLSEGDLFTQLRKIVKMASNEDERLPPIGLLTSDGRSEWAKARTVLLKDSTNRDSLDMIERCICLVCLDGPGTGELSDTHRALQLLHGGGCSLNGANRWYDKSLQFVVGRDGTCGVVCEHSPFDGIVLVQCTEHLLKHMMTSNKKLVRADSVSELPAPRRLRWKCSPETQGHLASSAEKLQRIVKNLDFIVYKFDNYGKTFIKKQKYSPDGFIQVALQLAYYRLYQRLVPTYESASIRRFQEGRVDNIRSATPEALAFVQAMTDHKAAMPASEKLQLLQTAMQAQTEYTVMAITGMAIDNHLLALRELARDLCKEPPEMFMDETYLMSNRFVLSTSQVPTTMEMFCCYGPVVPNGYGACYNPQPEAITFCISSFHSCKETSSVEFAEAVGASLVDMRDLCSSRQPADSKPPAPKEKARGPTKPSNLDSSH | soluble
15 | MSLWTIMIGSKNRAKVHALQEVVIRDKIIVRSEAVPSDVASQPFSDQETIQGAINRANHCLSFDGVDYGVGLEGGVVRSEYGLFLCNWGALVSQTGDQWVAGGARVPLPQEVAHELEGGKELGDIMESLTKNPDVRMTDGAIGYLTDGEISRKAMFQHVVHLLIGQARRDGHLLRTVTHEGHHHHHH | soluble
16 | MSLPLPKAELHLHIEGTLEPELAFALAARNGVPLPYAHTDELRKAYQFDDLQSFLNLYYELMAVLRTEQDFEDLANAYLPRAAAQGVRHAEIFFDPQAHIARGVAMGTVVEGLWRALGRSTENHGVSTQLIMCFLRDESAESALETLEAAKPYLDRIIGIGLDSAEVGHPPAKFREVYEAAAALGLRRVAHAGEEGPPEYITEALDVLGVERIDHGLRCMEDDALVERLVRERVPLTLCPLSNVRLRAVDVLAEHPLPAMLDAGLLCTVNSDDPAYFGGYVADNFHAVRDALGLDQERMRELARNSFVASFLEHDEERRARYLAEVEAYDFPGEGHHHHHH | soluble
17 | GPGSMSKLISDAIAAEDASKWNTSYELYPPRSEKAEEDMMKVLVPNFMHQSPVFLDLTWGAGGRTSGTTMRLCKDLQHAHPDTPINMHITCTNTPKGLIKETLEFAKTHGIRNILALRGDPPSGEEFQVDPDGFACARDLVRYIRDTYGDYFCVSVAGYPEGHPSRIAENGTISHEDHQKELEYLKEKVDAGASFIITQLFYDASLYVKFVKRCREVGITVPILAGLLPITTYAGFVRMVSLCKTSVPSDVKKRVEELKENPDGLKEYGVEQCVQMIECIRASGLDYHHLHFYTLNNSAQIFKILKRLNALVE | soluble
18 | MAHHHHHHMFSSHKTPAKAQRDGYDDEQHLVAAVSEFKKVEASNQSMVDQLHQRLASPFQITAKPCEAGRAAVLQCYQQLQSSSAVTTSNAASSTSPAPPPGARSDSKSAKVAPAEAWLSIPYQQCYETALAYHQCVEDTLAKHLALVAAFEQCGTQQKIAHQSAMKAQDKPQ | soluble
19 | MGSSHHHHHHSSGLVPRGSHMSGALKENSGKPSEVEYTHFKDLQALEMERGRLYETIVVTWDDSMVGNAAPIGVLCTGDDTVTLYLYQGTRTVENVLNNGRFTVNVTLDPLIFTDSTLGDLEEDMFSHYRDFLHLRGADAFFTAEVVSVKKLVKRDRFGESELHVVKARAGDVMRAESFRMALNRGIYAVIESLIAYTRAEFSDPLVLRERIAEMNRVARKVGGPREKEAMRRIIQALESKIS | soluble
20 | MGSDKIHHHHHHMNEIRVSSWPALHEVLYGESWNPRLGRFRSPFVFRGQSRAEAKLTTTLQRLSGETREIERHLLRNFRKYAYRNGMDRDLPWYWLAVGQHHGLPTRLLDWTTSPLVALHFATAEEDHYSQDGVVWMVNFIRTNERLPAPLKALLEQEGADVFTVDMLTAFSRAHRSQQMPELGQQPSFDLSWLEDLEREAEHPFLLFLEPPSIDERIVQQAALFSLLSDPEAALDDWLVQHPGTAHKVILPADLKWEIRDKLDQSNITERTLFPGLGGLSQALRRYYRVGRDPSQQQGATAEEQAQEMERQN | not soluble
21 | MVQDWHQQEKARMIQTLTGTKAVYGSEVESKIIEFAIVGADEVVAEKLGVSIGDFVYKIIRLRIIHSIPTIMEHTWMPISVIPGVEASVLEESIYSHIQNKLGLEVGTSVVRVKGIRPDDREKQFMNLTNQDFLMRVEQVAYLTDGRTFEYSYADHLPETFEFETVITAKKL | not soluble

Source: the DeepSol protein solubility set
